Reference: the supplement of paper PMC10126150
± gives the standard deviation of the averaged measurements.

Test system: ATP
Experiment: switch fluorescence ratio, 500 uM ATP over buffer (Cy3 cluster intensity, sum of 5 cycles each) (fold (ratio)); higher = stronger signal-on switching upon ATP binding; sequences stand for … in TCGTCGGCAGCGTCAGATGTGTATAAGAGACAGTTTTTTTTTTTTTTTTTTTTTTTTT…TC
Conditions: aptamer strand: ATP DNA aptamer (quencher-CACCTGGGGGAGTATTGCGGAGGAAGG + anchor), 100 nM annealed; ATP concentration: 500 uM
Procedure, shortened: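 Per cluster, summed Cy3 intensity from the target cycles was divided by that from the buffer cycles to give the fluorescence ratio, then averaged per switch-domain sequence. Clusters outside 100-1000 RFU were excluded. The Cy3-labelled switching-strand clusters, on a modified Illumina MiSeq flow-cell, were annealed to 100 nM quencher-labelled ATP aptamer and imaged in selection buffer, then after 15 min with 500 uM ATP at 22 °C, for five cycles with NaOH stripping and re-annealing between them.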
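Further: ATP exposure 15 min at 22 °C before imaging.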

TAAAACTCCA
switch fluorescence ratio: 1.03 ± 0.038

TGCTTTTTAA
switch fluorescence ratio: 1.03 ± 0.063

ACGGGGTTTT
switch fluorescence ratio: 1.01 ± 0.017

CAAAGGGATA
switch fluorescence ratio: 1 ± 0.054

GCCGGTTCTG
switch fluorescence ratio: 1.06 ± 0.022

GATGGGTTGA
switch fluorescence ratio: 1.06 ± 0.03

TCAAGGCACC
switch fluorescence ratio: 1.1 ± 0.023

GATTTTCCTA
switch fluorescence ratio: 0.9608 ± 0.0014

AAGGTGGGGG
switch fluorescence ratio: 0.991 ± 0.033

CGTTGTTGGA
switch fluorescence ratio: 1 ± 0.025

GATTACAGTG
switch fluorescence ratio: 1.02 ± 0.047

AGGAACTGCA
switch fluorescence ratio: 1.07 ± 0.029

CACGCGTGGA
switch fluorescence ratio: 1.003 ± 0.0055

CCAAGTAATT
switch fluorescence ratio: 1.2 ± 0.019

TGGGGGGGGT
switch fluorescence ratio: 1.02 ± 0.18

AGATTTTTGG
switch fluorescence ratio: 1.003 ± 0.0026

TATGTGGGTC
switch fluorescence ratio: 1.02 ± 0.035

TGGGGGTTAG
switch fluorescence ratio: 1.01 ± 0.021

TCCGATGGGG
switch fluorescence ratio: 1.084 ± 0.0093

ATGTGATGAA
switch fluorescence ratio: 0.973 ± 0.019

AACGTAAATA
switch fluorescence ratio: 1.11 ± 0.053

CGGTGGTTGC
switch fluorescence ratio: 1.03 ± 0.11

GCGGGAATGA
switch fluorescence ratio: 1 ± 0.045

ATTTTAGCGT
switch fluorescence ratio: 0.9958 ± 0.0062

GGGCACAGCA
switch fluorescence ratio: 0.9752 ± 0.0056

CGGTTCGTTA
switch fluorescence ratio: 0.9795 ± 0.004

AGCATTGGTT
switch fluorescence ratio: 1.02 ± 0.035

TCGATGCAGC
switch fluorescence ratio: 1.45 ± 0.31

TTATATGTGT
switch fluorescence ratio: 1.01 ± 0.039

AACTAGCCGG
switch fluorescence ratio: 0.961 ± 0.025

GACTGTCGGC
switch fluorescence ratio: 1.02 ± 0.024

AGAGGGGGCG
switch fluorescence ratio: 1.01 ± 0.039

CGGCCGGGGA
switch fluorescence ratio: 1.14 ± 0.19

CGTGATGGTA
switch fluorescence ratio: 0.969 ± 0.0098

ATTCTTTGGT
switch fluorescence ratio: 0.979 ± 0.054

AGGAATCAAG
switch fluorescence ratio: 0.9968 ± 0.0071

AGTATATGGA
switch fluorescence ratio: 1.01 ± 0.013

ATGCTAGTTG
switch fluorescence ratio: 0.98924 ± 0.0007

GCATTGGGTG
switch fluorescence ratio: 1.11 ± 0.054

TATTTGGGTC
switch fluorescence ratio: 0.98285 ± 0.00046

TTGTATACCT
switch fluorescence ratio: 1.17 ± 0.02

TCGTAAAGTT
switch fluorescence ratio: 0.955 ± 0.02

GGGAAACGAG
switch fluorescence ratio: 1.04 ± 0.019

GGCAGAGTTC
switch fluorescence ratio: 0.991 ± 0.013

TGTCACAAGC
switch fluorescence ratio: 1.02 ± 0.013

GATGTTAATA
switch fluorescence ratio: 0.985 ± 0.085

AGGATTTACT
switch fluorescence ratio: 1.01 ± 0.026

AGCTTGTTCG
switch fluorescence ratio: 0.987 ± 0.023

AGTATTTGAG
switch fluorescence ratio: 0.975 ± 0.023

AGGCTTTGGG
switch fluorescence ratio: 0.978 ± 0.0099

AGGTTGTGCG
switch fluorescence ratio: 1 ± 0.042

ACGCCAGCTA
switch fluorescence ratio: 1.137 ± 0.004

TAGAAAAGGG
switch fluorescence ratio: 1.03 ± 0.031

AAGTGGCTTT
switch fluorescence ratio: 1 ± 0.014

TGGGGAGAAC
switch fluorescence ratio: 1.055 ± 0.0077

GGGGGACGTT
switch fluorescence ratio: 0.981 ± 0.031

CGATCGGATG
switch fluorescence ratio: 1.03 ± 0.023

TGAGTTAGGC
switch fluorescence ratio: 1.04 ± 0.054

TTAAGTCCGG
switch fluorescence ratio: 0.9629 ± 0.0071

GGAGGCGTTT
switch fluorescence ratio: 0.996 ± 0.04

TTAATGGGTG
switch fluorescence ratio: 1.05 ± 0.015

GTTCTTTTTT
switch fluorescence ratio: 0.9511 ± 0.0071

GGACGCTATC
switch fluorescence ratio: 3.89 ± 0.42

TACGGGGG
switch fluorescence ratio: 1.01 ± 0.071

CGAAATCCTT
switch fluorescence ratio: 1.05 ± 0.039

ATCTGGAGTT
switch fluorescence ratio: 1.01 ± 0.018

TTATGTAATC
switch fluorescence ratio: 1.19 ± 0.25

TTGGGCCATG
switch fluorescence ratio: 1.05 ± 0.027

AACCGGGGAC
switch fluorescence ratio: 1.31 ± 0.23

AAATGGGTTG
switch fluorescence ratio: 1 ± 0.01

GGGTCCATGG
switch fluorescence ratio: 0.985 ± 0.024

GAGTGGGGTT
switch fluorescence ratio: 1.011 ± 0.0024

TGTTTGTGAA
switch fluorescence ratio: 0.9815 ± 0.0032

TATAATTTAC
switch fluorescence ratio: 1.06 ± 0.017

GAAGGAAGTT
switch fluorescence ratio: 1.01 ± 0.041

TGTTAGTATT
switch fluorescence ratio: 0.999 ± 0.019

AAGTTTATTT
switch fluorescence ratio: 0.973 ± 0.051

GCAGAAAAAA
switch fluorescence ratio: 0.988 ± 0.028

GGAAACCATT
switch fluorescence ratio: 1.03 ± 0.024

AATTTAAAGC
switch fluorescence ratio: 1.03 ± 0.07

ATTCGTTATG
switch fluorescence ratio: 1 ± 0.013

CAGTAGTCGC
switch fluorescence ratio: 1.01 ± 0.03

GGGGGAATAT
switch fluorescence ratio: 1.13 ± 0.39

GGGGCCAAGT
switch fluorescence ratio: 0.981 ± 0.037

AATACGAGTC
switch fluorescence ratio: 1.09 ± 0.022

GGGGGTGGCT
switch fluorescence ratio: 1.027 ± 0.0069

TGTGAGGGGG
switch fluorescence ratio: 1.01 ± 0.038

TATCTTTAGT
switch fluorescence ratio: 0.989 ± 0.015

ACCGGAGAGC
switch fluorescence ratio: 1.1 ± 0.18

GATTGATGGT
switch fluorescence ratio: 0.992 ± 0.021

TGGAGGGGTT
switch fluorescence ratio: 1.02 ± 0.037

CGAGGTAGCT
switch fluorescence ratio: 1 ± 0.021

GTAGTGTGGT
switch fluorescence ratio: 0.999 ± 0.012

TCGGTTAGAT
switch fluorescence ratio: 0.981 ± 0.057

AACCAGTTTT
switch fluorescence ratio: 0.98 ± 0.027

ATGATGGGGG
switch fluorescence ratio: 0.984 ± 0.027

GGATTAAGGG
switch fluorescence ratio: 0.993 ± 0.024

ACATAATGTG
switch fluorescence ratio: 1.06 ± 0.013

TAAGAAGTTA
switch fluorescence ratio: 1.02 ± 0.03

GGGTCGGGAG
switch fluorescence ratio: 0.979 ± 0.027

GACGACGTTA
switch fluorescence ratio: 1.55 ± 0.026

AAGAGGTTTG
switch fluorescence ratio: 0.949 ± 0.013

ATGGATTTT
switch fluorescence ratio: 1.001 ± 0.0019

TGTAGCCAGT
switch fluorescence ratio: 1.05 ± 0.07

GCCAGGGGGT
switch fluorescence ratio: 1.08 ± 0.12

GGACTTTAAT
switch fluorescence ratio: 1 ± 0.017

GCCGACAAGC
switch fluorescence ratio: 1.05 ± 0.083

ATTTGGCGGT
switch fluorescence ratio: 0.997 ± 0.025

GTTGCATATT
switch fluorescence ratio: 0.978 ± 0.023

GGTAACATGG
switch fluorescence ratio: 1.01 ± 0.021

GTGAAAGGAG
switch fluorescence ratio: 0.997 ± 0.039

GGGGGAGCTT
switch fluorescence ratio: 0.9828 ± 0.0078

GGAATAAAGT
switch fluorescence ratio: 0.996 ± 0.021

TTGTATGTAC
switch fluorescence ratio: 1.22 ± 0.13

ATTCATTATT
switch fluorescence ratio: 0.9927 ± 0.0049

GCCCGTTCGG
switch fluorescence ratio: 1.01 ± 0.028

CGGACCATTT
switch fluorescence ratio: 1.04 ± 0.024

ATCGGTAATT
switch fluorescence ratio: 0.997 ± 0.029

TGGGGGCACG
switch fluorescence ratio: 1 ± 0.026

CCAGGGGCGA
switch fluorescence ratio: 1.75 ± 0.9

GTTATTGCGA
switch fluorescence ratio: 0.997 ± 0.019

TCAAAGTGTA
switch fluorescence ratio: 0.968 ± 0.064

TTAGGAACAT
switch fluorescence ratio: 1.2 ± 0.23

GTTGTTAATT
switch fluorescence ratio: 1.01 ± 0.029

TTTGTAAGTT
switch fluorescence ratio: 0.995 ± 0.03

TTTAGGGA
switch fluorescence ratio: 0.973 ± 0.033

TCGTGAGTGG
switch fluorescence ratio: 0.975 ± 0.021

TAGGCTGAAA
switch fluorescence ratio: 0.9906 ± 0.0024

TTTATGGTGT
switch fluorescence ratio: 1.17 ± 0.21

TTTGCGTTTC
switch fluorescence ratio: 1.07 ± 0.039

CGTGGTCAAC
switch fluorescence ratio: 0.968 ± 0.047

AAAATTTGTG
switch fluorescence ratio: 0.995 ± 0.017

ATGTTGGGAA
switch fluorescence ratio: 0.978 ± 0.029

GGTGATATAG
switch fluorescence ratio: 0.984 ± 0.021

TGAATTTCTT
switch fluorescence ratio: 0.986 ± 0.022

AACCTATTAT
switch fluorescence ratio: 0.998 ± 0.019

CGGTTATGGA
switch fluorescence ratio: 0.999 ± 0.026

TCTGATGCGT
switch fluorescence ratio: 1.03 ± 0.0038

GGGAAAGATA
switch fluorescence ratio: 0.988 ± 0.021

TAGGATTGG
switch fluorescence ratio: 0.971 ± 0.015

GGGCCTAGCG
switch fluorescence ratio: 0.978 ± 0.019

CCGGACGGAG
switch fluorescence ratio: 1.04 ± 0.026

GAGTTTTTTT
switch fluorescence ratio: 0.987 ± 0.033

TTTGGCGCAC
switch fluorescence ratio: 1.06 ± 0.015

ATCTATGATA
switch fluorescence ratio: 0.954 ± 0.011

GTTGAAGGGG
switch fluorescence ratio: 1.029 ± 0.009

TGATTCGAGC
switch fluorescence ratio: 1.003 ± 0.0058

GCAGCTGGCT
switch fluorescence ratio: 1.02 ± 0.11

TAGGTTGTGG
switch fluorescence ratio: 0.994 ± 0.016

AGAGGGATAC
switch fluorescence ratio: 1.07 ± 0.035

TGGGTATGT
switch fluorescence ratio: 1.03 ± 0.0087

CCGTGTATTT
switch fluorescence ratio: 1.05 ± 0.052

TTCAAGTTAT
switch fluorescence ratio: 1.04 ± 0.045

CGAAAAGTTG
switch fluorescence ratio: 1.01 ± 0.048

CGCATCGTAA
switch fluorescence ratio: 1.074 ± 0.0044

CCAATGGTGA
switch fluorescence ratio: 1.16 ± 0.068

GAGGCGTATT
switch fluorescence ratio: 0.988 ± 0.049

TCGTGTTAGG
switch fluorescence ratio: 1.02 ± 0.022

TCATATTTTT
switch fluorescence ratio: 1.006 ± 0.0064

ACAAGGTGAC
switch fluorescence ratio: 1.082 ± 0.0021

GGCCCAGTAG
switch fluorescence ratio: 1.14 ± 0.062

TCGGCGTGGG
switch fluorescence ratio: 1.01 ± 0.025

CATAAGTTAT
switch fluorescence ratio: 1.02 ± 0.02

TTGTGTATTT
switch fluorescence ratio: 1.001 ± 0.0098

AGGATGAGCT
switch fluorescence ratio: 0.969 ± 0.032

CTGGGCGGTT
switch fluorescence ratio: 0.9959 ± 0.0017

TCATATTGGA
switch fluorescence ratio: 0.979 ± 0.015

GATTAAGGT
switch fluorescence ratio: 0.992 ± 0.014

CGTTACTAAC
switch fluorescence ratio: 1.12 ± 0.02

GCTATTATAC
switch fluorescence ratio: 1.47 ± 0.0019

GATTTGAATT
switch fluorescence ratio: 0.977 ± 0.025

GACCGATTTT
switch fluorescence ratio: 0.989 ± 0.015

TACCAAAGAA
switch fluorescence ratio: 1.04 ± 0.026

CGAGGGGATT
switch fluorescence ratio: 1.25 ± 0.54

CCGGAACATG
switch fluorescence ratio: 1.23 ± 0.058

TCTATTGGCT
switch fluorescence ratio: 1.016 ± 0.0049

AATGCGGGGA
switch fluorescence ratio: 1.03 ± 0.017

TTGATTAATT
switch fluorescence ratio: 0.9925 ± 0.0099

TTGGGTTGCG
switch fluorescence ratio: 0.964 ± 0.035

GGTTGATACG
switch fluorescence ratio: 0.959 ± 0.026

TATTTTTGGG
switch fluorescence ratio: 0.99 ± 0.023

AGTTCCGGGA
switch fluorescence ratio: 1.02 ± 0.067

TGAGTATTGG
switch fluorescence ratio: 0.99 ± 0.027

TAGGTCCAAT
switch fluorescence ratio: 1.01 ± 0.015

ACGTTACTCA
switch fluorescence ratio: 1.5 ± 0.032

ATGGTCAGGG
switch fluorescence ratio: 0.987 ± 0.026

TTAGGGGGAT
switch fluorescence ratio: 0.988 ± 0.019

AGCTTGAAG
switch fluorescence ratio: 0.999 ± 0.019

CTGTGGCTGG
switch fluorescence ratio: 0.9795 ± 0.0073

GTTCAAAATT
switch fluorescence ratio: 1.03 ± 0.036

CCAGTGTTCT
switch fluorescence ratio: 1.01 ± 0.024

GTTGGTTCCG
switch fluorescence ratio: 0.996 ± 0.022

TTGGGGGGTC
switch fluorescence ratio: 1 ± 0.034

CATTTCTGTT
switch fluorescence ratio: 1.004 ± 0.0047

ATCTTTGGTA
switch fluorescence ratio: 0.9826 ± 0.0074

TGCGAATTGT
switch fluorescence ratio: 1.01 ± 0.012

TTTAACAGGT
switch fluorescence ratio: 1.03 ± 0.023

GGCCGTTTTC
switch fluorescence ratio: 1.01 ± 0.00017

CATATCTAAG
switch fluorescence ratio: 1.002 ± 0.0019

CCGTTGGCCT
switch fluorescence ratio: 1.042 ± 0.0065
